assay: soluble on expression in E. coli; label from the status in PepcDB or PDB records

Soluble on expression in E. coli, not soluble:
MGSDKIHHHHHHMARIARVIATGIPHHVTQRGNRRMPTFFNDEDYRAYIALLGEWCRKCGVDIWAYCLMPNHVHLIAVPETDDGLRRGIGEAHRRYSRMINFRENWRGHLWQGRFASFPMDESYLLAAARYVEMNPVRARLTPKAALWPWSSARAHLDRMDDELVKVAPLLELVGDWSLFLAGTGEEDQLNDIRKHERTGRPLGTEEFVERLESALERPLKKGKPGPKGNDN, MGSDKIHHHHHHMARTTDRQRNTRSPRQARRQLNKLLRDPIVKPHNAAAVRIRLDEMMAILQHREYRPEQPSSTNQVNTHGQVQFDLARWYPEGGRLRYTLRPRGALLPIAFTVQDFGNHRKSLTRGLALAVAGAAHQLDQMKAANKLPLIMQPFSDWVHLLAIGLQNWLENGQVVFSLADLNGAYVLTSMPTAPATWLARLFGISLGNPDQSLTDLRRQRQEQADRLTTRLAAKFAIEEAPLVQAANDRAAKSIQLDAATMATLASDQAPLRSQKDVVDRLARGDYIVIDTEFVADRNQLDLTEISLLRVRHHQVDGAFDIFTQLPEDHHVMPFSVKITGITDDLLSQYGQPLPLAKAAVEQLLKHELVVGFALSNDLRALRAGLNVDITPVQAFDVAALARKTFGIGKKHTPSLQHYKEALGVDLPSHTALSDAQTTMALLEHLIWEGSPLITKDIGFEQRPPEHANDPEPYQKPDPSTS, MGSDKIHHHHHHMASPINESRIGYLYEAVRCGTVRAAADYLDVAPSAVSRQIALLEEELAIALVERNKRGVRPTEAGALLIEYFRQQRSHQGDLIAKLQEIRGLRRGTIAVVMGEGFASTMVSGPIKQYCEAYPEISITLDLCSTNEVMRRVSEDEAEIGLVFNPASDARIVSRVGSRQPMHAIVSPAFPLVGKVQSVTLRDMLPYPLALTHPEHGTRRLVDAAMLLEKVRLTPAITTNSATILKLFAKSNLGFTLLTPISIAAELAAGELVAIPVENRLLQSPEAHLVTRAGRQLSPAANRLLQRLTAQINQYAQYGSAS, MGSDKIHHHHHHMASSENTKNGNGGTLGFEAELFKAADKLRGNMEPSDYKHVALGLIFLKYISDAFEARHKALLAEDVRAAEDKDEYLADNVFWVPKEARWSHLQANAKLPAIGTLIDDAMRAIEKDNESLKGVLPKDYARPALNKVMLGELIDLISGIALNEEGDRSKDILGRVYEYFLGQFAGAEGKRGGEFYTPRSVVRVLVEMLEPYSGRVYDPCCGSGGMFVQSEKFVHEHGGRIGDIAIYGQESNYTTWRLAKMNLAVRGIDSDIRWNNEGSFHKDELRDLKADYVLANPPFNISDWGGDRLREDVRWKFGAPPVGNANYAWLQHIFHHLAPNGTAGVVLANGSMSSNQSGEGEIRRAMIEADAVDCMVALPGQLFYSTQIPACLWFLARNKNPGGGLRDRRGQVLFIDARKLGVLIDRTRRELNDDDIKRIADSYHAWRGEKEAGEYADVLGFCKSASLDEIRKHGHVLTPGRYVGAEAQADDGEPFDEVMRRLSAQWRAQQLEGQRVDDAIERNLRELGYGQ, MGSDKIHHHHHHMASSIQGQENVMSQSEFDSALPNGIGLAPYLRMKQEGMTENESRIVEWLLKPGNLSCAPAIKDVAEALAVSEAMIVKVSKLLGFSGFRNLRSALEDYFSQSEQVLPSELAFDEAPQDVVNKVFNITLRTIMEGQSIVNVDEIHRAARFFYQARQRDLYGAGGSNAICADVQHKFLRIGVRCQAYPDAHIMMMSASLLQEGDVVLVVTHSGRTSDVKAAVELAKKNGAKIICITHSYHSPIAKLADYIICSPAPETPLLGRNASARILQLTLLDAFFVSVAQLNIEQANINMQKTGAIVDFFSPGALK, MGSDKIHHHHHHMASSTSIDFKGNVTGALADRQLRANFRSALDGLRAKRLNVFSDAEELDRMRVQGEANKRRALAQLPALLEQLEHRCTANGIIVHWAETTDEANRIVLDIMRSHDATTLVKGKSMVSEEMHLNAYLERHGIEALETDLGEFIIQLNHEPPSHIIVPAVHKNRQQVARIFHEKLGEPYVDEVEKLNAIARRTLREKFRTAQVGLSGVNFAIAETGTLLLVENEGNGRMCTTVPPVHIALMGLEKVVERLEDVPPLLRLLTGSATGQLVTTYVNCITSPRKPGEKDGPREVHLVILDNGRSRMLADPQLSRTLQCIRCGTCLNHCPVYVRIGGHAYDSVYPGPIGKILTPQIDGLARKGVLATASSLCNACEEVCPVRIPIPALLRRLRRESYAPPGEGVVKGAGSKRTLFEKAVWKGWEMVYSHPALYSFVLKVLGRFGHRLPKVGPLKAWTSVRTAPRFASTSLHELTRQEGIRHE, MGSDKIHHHHHHMATETRVASLPSIDAAALAAIEGCALVDLLLPDTNGVLRGKRVTREALDKVYRDGVCLPMSLIATDITGNTVEETGLGYAIGDADRICRPIAGSLRPVPWAPQPMAQLLLAMHTPNGALFEVAPRAVLQRVVQGFAALGLTPVIAVELEFYLFDAMADAQGRPQTPRDAHTGERNTSTQVYALQDLDDHRSFTDAVTAACRQQGIPADTAVAEYAPGQFEINLQHRADAVAACDEALLLKRTIKAIAQQQHLLASFMAKPFAGQAGSGLHVHVSLLDAAGHNVLHGTADAPAAALRHAIAGLQRHADASLLLFAPHANSYRRFVPNAFVPLDASWGFNNRTVALRIPHSDAHNTRIEHRIAGADANPYLVAAAVLAAMLDGLQHPGDPTAPVQGNAYAQATFTPRTWQGAVDAFLRSDFIATQLGTQFQHVFGQQKQRELLDYQALVPDLDYARYLRTV, MGSDKIHHHHHHMATLLTLLLLFATPIAIRAEEFVWPEPSNAIERKFEKAALTSDNAACSKIGGEILRKGGNSIDASIASMFCLGVVNPQSSGIGGGFLMTYFDQKSGDCYSIDARETAPAAASRDMFLNDSDGSKYGFKAAGTPGEIAGYWHIFKKFGSGKVTWKELVQPSVKLAREGHPVSPYLATVMKVKERHFRLFPSVKASSIKLSMFYRHWINPETNDTYQSGDLLKRPKLAKTLERLGNSPNPVQLFYHGEMAKTLAKEFQEGGGLITEQDLANYKVREYVNSNSNDHFRGTLTMCGGPPPSSFGVTQLIVSAMSKLFPEGHKDDIYNDPKVLHKYIEAMKFAYAQRTLLGDHDFVKGALELSKNLTTPEYTQWVIDRMTDKAQSSKNYGGIAQYVPPDHGTSHVSAMDQYGNGVSATTTINRWFGAAVESSEYGILWNDEMDDFSTPGMENGFGFAPSETNFIEPGKRPMSSMSPMVIFDHVTKKVRMVIGGSGGSKIISALAKSIVRSLIFHDSIKKAIDAPMIHNQFTPDITQLDDEFPINMKNILESEYLQKFRNTTGFEGIIQGVNVLNDGIYACGDYRRKTDQEPSGF, MGSDKIHHHHHHMATQRGTTAPPQTGSEQTGSVAGAGNARASLGVDGAVRLATSSVTTQSYAREFARLFNVDTAHTLTTTSLKTAQLTATHMCSSVHGLGKSTPLPTEDAYILSLQLQHSGGAELWKRGRRVPTEPYAPGSIMLGHLSDEPVANLPDPFECILFHIPRPAFDELCGLSALPPVGELDDVNRTIDPVLHHLGLALVPAMADPQLAGSLFFDHVAHAMYERLATTYGRFRGTLPPRGRVLSKTQERIAKELLVADLLVEPPLSDIALACGLSVRQFVDAFRSTTGMPPFRWLRAYRIERAKELLRRTSFSLAEIGAACGFADQSHFTRTFSAATGTTPGDWRRACGA, MGSDKIHHHHHHMATQTDSEAALRIASGRKAFVEPLRLGERLKEIRLSNRWTLEDVSQRTGLARSTLSKIENDQISPTFSAVQKLIGGLGIDLPQLLTPPKPQSRTLGRRDLTRVGEGKQHPTPTYEHELLSWQLAQKRMIPFKTIVRARDFNEFSEWVRHDGEEFLMVLDGDIWLYTEFYEPLHLAQGDSIYFDSDMGHALISVSETDAVVLSVCTRGENA, MGSDKIHHHHHHMATSIETSFPDAPSTTPVLEMQGITKRFHGVSALQNVNLTIYPGEVHALMGENGAGKSTLMKILAGAYIADEGEIRINGQPLKITDPATARKAGINLIYQELNVAPNLTVTENMFMGSELRRGQFLDRKAMQLEAEQVLDSLGANFTAQTIVGTLSIAEQQQVEIARALKDKSRVLVMDEPTAALSDRESDHLFEVIRKLRSDGIAIIYISHRMEEIYALADRISVLRDGQYIGSLTRSEISPQRLVQMMVGRSMQDFYEHQRQMNPGPVVLEVRNMSDARKKIEPASFELHAGEILGLAGLVGAGRTELSRLIFGADRKASGEVFLNGKKLEINTPSDAIAAGIGYVPEDRKDQGLFLEMSARKNIAINTLKQDAKGGIVNWPSVNRLSTEAVENFNIRLANLEIRALDLSGGNQQKLLLARWLAIKPRVLMLDEPTRGVDIGAKSEIYRIMSELAAQGVAILMVSSELSEIVGMSDRVLVMREGQLVGELDGSLGKEITQEKIMHYATGASEVSAL

— the DeepSol protein solubility set
